Target: T1, RNase/ANG inhibitor 1 (RNH1), endogenous protein in sorted mouse LKS cells and myeloid-restricted progenitors (mouse, UniProt Q91VI7 1-456)
T1 sequence (looked up): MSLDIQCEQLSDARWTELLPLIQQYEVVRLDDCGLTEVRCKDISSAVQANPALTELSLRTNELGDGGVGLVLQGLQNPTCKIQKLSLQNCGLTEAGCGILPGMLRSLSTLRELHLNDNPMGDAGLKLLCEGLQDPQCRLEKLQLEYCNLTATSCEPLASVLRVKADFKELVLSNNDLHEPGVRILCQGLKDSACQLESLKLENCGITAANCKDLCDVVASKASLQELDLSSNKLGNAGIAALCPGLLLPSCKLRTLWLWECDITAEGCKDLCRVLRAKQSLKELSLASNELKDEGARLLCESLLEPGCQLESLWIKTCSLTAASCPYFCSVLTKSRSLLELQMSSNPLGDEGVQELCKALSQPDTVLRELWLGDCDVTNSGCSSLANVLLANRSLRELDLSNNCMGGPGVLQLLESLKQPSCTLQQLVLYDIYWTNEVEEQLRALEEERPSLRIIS
Test: double immunofluorescence and acceptor-photobleaching FRET (AF488 donor, AF555 acceptor) on fixed sorted mouse cells
Protocol: For ANG/RNH1 localization, cells were stained with an in-house made mouse ANG-specific C527 monoclonal antibody (10 μg/ml) and R127 rabbit pAb of RNH1 (5 μg/ml), followed with AF488-conjugated rabbit anti-mouse (Thermo Scientific A11059, 1:600 dilution) and AF555-conjugated goat anti-rabbit (Thermo Scientific A21428, 1:600 dilution). Appropriate isotype controls were used at the same concentration. Images were acquired using Nikon A1R confocal microscopy.
FRET was performed using the acceptor photo-bleaching method, as previously described (Pizzo et al., 2013). Briefly, AF488 was used as the donor and AF555 as the acceptors. Signals were photobleached to less than 10% of the initial fluorescent measurement. ROI measurements from LKS cells and myeloid-restricted progenitors were taken from 10 individual cells. FRET efficiency was calculated using the formula […], where ID and IDA are fluorescence intensities before and after photobleaching, respectively. FRET was performed using Leica SP2 confocal microscopy.
The exact subcellular compartment where tiRNA is produced by ANG is currently unknown, but it has been shown that tiRNA production is correlated to SG localization of ANG in stressed cells (Pizzo et al., 2013). […]

binding result: binds
B1: Angiogenin (ANG), endogenous mouse protein in sorted LKS cells and myeloid-restricted progenitors (enzyme, UniProt P21570 25-145, looked up)
chain: QDDSRYTKFLTQHHDAKPKGRDDRYCERMMKRRSLTSPCKDVNTFIHGNKSNIKAICGANGSPYRENLRMSKSPFQVTTCKHTGGSPRPPCQYRASAGFRHVVIACENGLPVHFDESFFSL
notes: Endogenous intracellular protein, not the recombinant ANG preparation; also called ribonuclease 5; RNase5

Source: patent US20190000885A1 (GENERAL HOSPITAL, published 2019)
